Source: patent US20100316641A1 (US Dept. of Health and Human Services, published 2010)

Target: T1, Bal gp120-CD4 (HIV-1 (Bal isolate))
T1 construct: domain: gp120;domain: two-domain CD4; also called gp120Bal-CD4; panning antigen; not shown: junction or linker between gp120 and CD4 is not described
Experiment: ELISA, antigen coated, purified refolded nAb, anti-His-HRP

Binder	EC50
m1a1 (designed binder, also called CH2 clone m1a1; nAb m1a1; not shown: C-terminal His tag used for detection) APELLGGPSVFLFPPKPKDTLMISRTPEVTCVVVDYDYDSYFDFGKFNWYVDGVEVHNAKTKPREEQYNSTYRVVSVLTVLHQDWLNGKEYKCKVSNSDSAASGPIEKTISKAK	500 nM
m1a2 (designed binder, also called CH2 clone m1a2; nAb m1a2; not shown: C-terminal His tag used for detection) APELLGGPSVFLFPPKPKDTLMISRTPEVTCVVVDYDYDSYYDGKFNWYVDGVEVHNAKTKPREEQYNSTYRVVSVLTVLHQDWLNGKEYKCKVSNDDYAADGPIEKTISKAK	500 nM
